Test results taken from article doi:10.1101/2025.05.15.25327633.

Molecular target: Platelet-factor 4 (Human CXCL4) (human)
Assay: cross-linking + AUC

percent of PF4 present as tetramers: 81.2%
stoichiometry N: 4
Substance: Platelet-factor 4 (Human CXCL4) (natural protein)
